Assay results: article PMC6948192, “Structural Organization and Dynamics of Homodimeric Cytohesin Family Arf GTPase Exchange Factors in Solution and on Membranes” (Structure(London, England:1993), 2019)

How the values were obtained:
[1] = molecular target: the molecule itself; test: SEC-SAXS; ARNOFL, no phosphoinositide head group; BM29 beamline (ESRF), Bio Sec300 HPLC column, 600 μg in 60 μL injected
[2] = molecular target: the molecule itself; test: SEC-SAXS; BioCAT 18-ID (APS); samples with 1.2 molar excess of IP4, concentrated to 10-20 mg/ml, Superdex-200 Increase; 20 mM Tris pH 8.0, 150 mM NaCl, 2 mM MgCl2, 0.1% 2-mercaptoethanol, 5% glycerol, 1 μM IP4; peak concentration ∼80 μM (Grp1 14-399), ∼1 mg/mL (Grp1 14-390)

| Protein | stoichiometry N [1] | stoichiometry N [2] |
| --- | --- | --- |
| Full-length ARNO carrying a 3G sequence in the membrane-binding site (ARNOFL) (natural protein, human, UniProt Q99418 1-400, looked up, Cloned in pET-8c (Antonny et al., 1997); also called Cytohesin-2; source: E. coli, purified (Ni-NTA HisTrap FF, Superdex 200)) MEDGVYEPPDLTPEERMELENIRRRKQELLVEIQRLREELSEAMSEVEGLEANEGSKTLQRNRKMAMGRKKFNMDPKKGIQFLVENELLQNTPEEIARFLYKGEGLNKTAIGDYLGEREELNLAVLHAFVDLHEFTDLNLVQALRQFLWSFRLPGEAQKIDRMMEAFAQRYCLCNPGVFQSTDTCYVLSFAVIMLNTSLHNPNVRDKPGLERFVAMNRGINEGGDLPEELLRNLYDSIRNEPFKIPEDDGNDLTHTFFNPDREGWLLKLGGGRVKTWKRRWFILTDNCLYYFEYTTDKEPRGIIPLENLSIREVDDPRKPNCFELYIPNNKGQLIKACKTEADGRVVEGNHMVYRISAPTQEEKDEWIKSIQAAVSVDPFYEMLAARKKRISVKKKQEQP | 2 | – |
| Grp1_(14-399), diglycine variant, autoinhibited, in complex with the head group of PIP3 (IP4) (domain or fragment, mouse, UniProt O08967 14-399, looked up, Incubated with a 1.2 molar excess of inositol 1,3,4,5-tetrakisphosphate (IP4) before SEC-SAXS and NS-EM; source: E. coli BL21(DE3), purified (Ni-NTA, HiTrap Q, Superdex-200)) EDLSLEEREELLDIRRRKKELIDDIERLKYEIAEVMTEIDNLTSVEESKTTQRNKQIAMGRKKFNMDPKKGIQFLIENDLLQSSPEDVAQFLYKGEGLNKTVIGDYLGERDDFNIKVLQAFVELHEFADLNLVQALRQFLWSFRLPGEAQKIDRMMEAFASRYCLCNPGVFQSTDTCYVLSFAIIMLNTSLHNHNVRDKPTAERFITMNRGINEGGDLPEELLRNLYESIKNEPFKIPEDDGNDLTHTFFNPDREGWLLKLGGRVKTWKRRWFILTDNCLYYFEYTTDKEPRGIIPLENLSIREVEDPRKPNCFELYNPSHKGQVIKACKTEADGRVVEGNHVVYRISAPSPEEKEEWMKSIKASISRDPFYDMLATRKRRIANKK | – | 2 |
| Grp1_(14-390), constitutively active construct lacking the polybasic motif (domain or fragment, mouse, UniProt O08967 14-390, looked up, Grp1 (cytohesin-3), mouse, diglycine splice variant, residues 14-390 (lacks the polybasic region); also called fully active Grp1 dimer; source: E. coli BL21(DE3), purified (Ni-NTA, HiTrap Q, Superdex-200)) EDLSLEEREELLDIRRRKKELIDDIERLKYEIAEVMTEIDNLTSVEESKTTQRNKQIAMGRKKFNMDPKKGIQFLIENDLLQSSPEDVAQFLYKGEGLNKTVIGDYLGERDDFNIKVLQAFVELHEFADLNLVQALRQFLWSFRLPGEAQKIDRMMEAFASRYCLCNPGVFQSTDTCYVLSFAIIMLNTSLHNHNVRDKPTAERFITMNRGINEGGDLPEELLRNLYESIKNEPFKIPEDDGNDLTHTFFNPDREGWLLKLGGRVKTWKRRWFILTDNCLYYFEYTTDKEPRGIIPLENLSIREVEDPRKPNCFELYNPSHKGQVIKACKTEADGRVVEGNHVVYRISAPSPEEKEEWMKSIKASISRDPFYDMLAT | – | 2 |
